Test results: patent publication US7662384B2, “Use of anti-α5β1 antibodies to inhibit cancer cell proliferation” (Facet Biotech Corporation, priority 2004, dated 2010)
Values belong to the molecule of their own block, whether it stands above or below them.

Experiments:
LOX cells = assay: LOX orthotopic xenograft in SCID mice; type: in vivo; settings: 10 mg/kg intraperitoneally, 3 times/week for 3 weeks
Method: (§1) NW231 and LOX cells were grown as orthotopic xenografts in SCID mice and challenged with the anti-α5β1 antibodies M200 and IIA1 by intraperitoneal injection.
(§2) Immune compromised mice CB-17 SCID (strain C.B-Igh1/IcrTac-Prkdc) were obtained from Taconic Farms (Germantown, N.Y.). Studies were initiated using female mice between the ages of 6-10 weeks (˜20 grams in weight). Animals were pre-dosed with M200, IIA1 or control IgG intraperitoneally at a dose of 10 mg/kg 1 hour prior to NW231 inoculation (1×10^7 cells in IMDM) into the mammary fat pad. Dosing continued for 3 weeks at a frequency of 3 times/week at 10 mg/kg. Tumor volume was measured twice weekly by caliper and calculated by π/6×length×width×height. Clinical and mortality observations were performed daily according to IACUC regulations.

VX2 cancer cells = assay: SCID mouse VX2 xenograft model; type: in vivo; settings: SCID mice; 10 mg/kg intraperitoneally, 3 times/week for 3 weeks
Method: as §2, with “M200, IIA1,” for “M200, IIA1”, “mg/kg one” for “mg/kg 1”, “to VX2” for “to NW231”, “in Iscove's Modified Dulbecco's Medium)” for “in IMDM)”, “Dosing was” for “Dosing”

mouse α5β1 integrin = mouse α5β1 integrin (Mus musculus, UniProt P09055+P11688); assay: species cross-reactivity of anti-α5β1 antibody; type: binding
NW231 cells = assay: NW231 orthotopic xenograft in SCID mice; type: in vivo; settings: 10 mg/kg intraperitoneally, 3 times/week for 3 weeks
Method: as §1, §2

[1] = molecular target: T1, α5β1 integrin on the cell surface of 786-0 (Homo sapiens, UniProt P05556+P08648); assay: FACS analysis of cancer cell line with IIA1; type: binding; settings: 786-0 (renal); IIA1 10 μg/ml; background MFI ~5
T1 construct: endogenous in cells
Method: (§3) Cells were removed with 5 mM EDTA in Tris-HCl (pH 8.0) and blocked by centrifugation in Hank's balanced salt solution containing 3% heat inactivated FBS, 1% normal goat serum (Sigma) and 1% BSA at 4° C. for 5 minutes. Cells were incubated for 30-60 minutes at 4° C. with the mouse anti-α5β1 antibody, IIA1 (10 μg/ml) in FACS buffer (PBS containing 0.1% BSA). Excess monoclonal antibody was removed by centrifugation and cells were washed two times with FACS buffer prior to resuspending in PE-anti-mouse IgG (H+ L) antibody (Southern Biotech, 1:400 dilution) for 30-60 minutes at 4° C. After washing cells were re-suspended in FACS buffer containing propidium iodide (1 μg/ml). Mean fluorescence intensity (MFI) was measured on a FACSCalibur (Becton Dickinson). Background MFI was ˜5.

[2] = molecular target: T2, α5β1 integrin on the cell surface of HCT-116 (Homo sapiens, UniProt P05556+P08648); assay: FACS analysis of cancer cell line with IIA1; type: binding; settings: HCT-116 (colon); IIA1 10 μg/ml; background MFI ~5
T2 construct: endogenous in cells
Method: as §3

[3] = molecular target: T3, α5β1 integrin on the cell surface of SW839 (Homo sapiens, UniProt P05556+P08648); assay: FACS analysis of cancer cell line with IIA1; type: binding; settings: SW839 (renal); IIA1 10 μg/ml; background MFI ~5
T3 construct: endogenous in cells
Method: as §3

[4] = molecular target: T4, α5β1 integrin on the cell surface of HT144 (Homo sapiens, UniProt P05556+P08648); assay: FACS analysis of cancer cell line with IIA1; type: binding; settings: HT144 (melanoma); IIA1 10 μg/ml; background MFI ~5
T4 construct: endogenous in cells
Method: as §3

[5] = molecular target: T5, α5β1 integrin on the cell surface of A498 (Homo sapiens, UniProt P05556+P08648); assay: FACS analysis of cancer cell line with IIA1; type: binding; settings: A498 (renal); IIA1 10 μg/ml; background MFI ~5
T5 construct: endogenous in cells
Method: as §3

[6] = molecular target: T6, α5β1 integrin on the cell surface of H460 (Homo sapiens, UniProt P05556+P08648); assay: FACS analysis of cancer cell line with IIA1; type: binding; settings: H460 (lung); IIA1 10 μg/ml; background MFI ~5
T6 construct: endogenous in cells
Method: as §3

[7] = molecular target: T7, α5β1 integrin on the cell surface of TK-10 (Homo sapiens, UniProt P05556+P08648); assay: FACS analysis of cancer cell line with IIA1; type: binding; settings: TK-10 (renal); IIA1 10 μg/ml; background MFI ~5
T7 construct: endogenous in cells
Method: as §3

[8] = molecular target: T8, α5β1 integrin on the cell surface of C8161 (Homo sapiens, UniProt P05556+P08648); assay: FACS analysis of cancer cell line with IIA1; type: binding; settings: C8161 (melanoma); IIA1 10 μg/ml; background MFI ~5
T8 construct: endogenous in cells
Method: as §3

[9] = molecular target: T9, α5β1 integrin on the cell surface of ES-2 (Homo sapiens, UniProt P05556+P08648); assay: FACS analysis of cancer cell line with IIA1; type: binding; settings: ES-2 (ovarian); IIA1 10 μg/ml; background MFI ~5
T9 construct: endogenous in cells
Method: as §3

[10] = molecular target: T10, α5β1 integrin on the cell surface of SN12C (Homo sapiens, UniProt P05556+P08648); assay: FACS analysis of cancer cell line with IIA1; type: binding; settings: SN12C (renal); IIA1 10 μg/ml; background MFI ~5
T10 construct: endogenous in cells
Method: as §3

[11] = molecular target: T11, α5β1 integrin on the cell surface of DU145 (Homo sapiens, UniProt P05556+P08648); assay: FACS analysis of cancer cell line with IIA1; type: binding; settings: DU145 (prostate); IIA1 10 μg/ml; background MFI ~5
T11 construct: endogenous in cells
Method: as §3

[12] = molecular target: T12, α5β1 integrin on the cell surface of C32 (Homo sapiens, UniProt P05556+P08648); assay: FACS analysis of cancer cell line with IIA1; type: binding; settings: C32 (melanoma); IIA1 10 μg/ml; background MFI ~5
T12 construct: endogenous in cells
Method: as §3

[13] = molecular target: T13, α5β1 integrin on the cell surface of CHL-1 (Homo sapiens, UniProt P05556+P08648); assay: FACS analysis of cancer cell line with IIA1; type: binding; settings: CHL-1 (melanoma); IIA1 10 μg/ml; background MFI ~5
T13 construct: endogenous in cells
Method: as §3

[14] = molecular target: T14, α5β1 integrin on the cell surface of LOX (Homo sapiens, UniProt P05556+P08648); assay: FACS analysis of cancer cell line with IIA1; type: binding; settings: LOX (melanoma); IIA1 10 μg/ml; background MFI ~5
T14 construct: endogenous in cells
Method: as §3

[15] = minimum effective in vitro concentration
VX2 tumors = settings: rabbit, in vivo, 10 mg/kg
Method: Rabbits were inoculated on Day 0 with a cell suspension (100 μl) subcutaneously (left hind limb), and intramuscularly at a depth of about 3 mm (right hind limb). Intramuscular inoculation was carried out as follows. With the rabbit under ketamine/isoflurane anesthesia, a ˜2 cm incision was made parallel to the right femur with a scalpel on the anterior, lateral aspect of the femoral axis, ˜⅓ of the total femur length distally from the femoral-pelvic (hip) joint. Muscle groups were separated to create a ˜0.5 cm deep cavity. One VX2 tumor fragment from a donor animal was placed into the cavity. Skin was securely closed with sterile surgical staples or sutures and a topical antibiotic was applied to the wound site.
M200 was administered intravenously at 10 mg/kg dosage to a tumor-bearing rabbit and the tumor was excised 1 hour later. Tumor sections were stained with either: (i) an anti-human secondary antibody specific for tumor bound M200; (ii) IIA1 followed by an anti-mouse secondary to detect total α5β1; or (iii) a control IgG and anti-mouse secondary.

mouse α5β1 integrin, sequence (P11688 45-1053): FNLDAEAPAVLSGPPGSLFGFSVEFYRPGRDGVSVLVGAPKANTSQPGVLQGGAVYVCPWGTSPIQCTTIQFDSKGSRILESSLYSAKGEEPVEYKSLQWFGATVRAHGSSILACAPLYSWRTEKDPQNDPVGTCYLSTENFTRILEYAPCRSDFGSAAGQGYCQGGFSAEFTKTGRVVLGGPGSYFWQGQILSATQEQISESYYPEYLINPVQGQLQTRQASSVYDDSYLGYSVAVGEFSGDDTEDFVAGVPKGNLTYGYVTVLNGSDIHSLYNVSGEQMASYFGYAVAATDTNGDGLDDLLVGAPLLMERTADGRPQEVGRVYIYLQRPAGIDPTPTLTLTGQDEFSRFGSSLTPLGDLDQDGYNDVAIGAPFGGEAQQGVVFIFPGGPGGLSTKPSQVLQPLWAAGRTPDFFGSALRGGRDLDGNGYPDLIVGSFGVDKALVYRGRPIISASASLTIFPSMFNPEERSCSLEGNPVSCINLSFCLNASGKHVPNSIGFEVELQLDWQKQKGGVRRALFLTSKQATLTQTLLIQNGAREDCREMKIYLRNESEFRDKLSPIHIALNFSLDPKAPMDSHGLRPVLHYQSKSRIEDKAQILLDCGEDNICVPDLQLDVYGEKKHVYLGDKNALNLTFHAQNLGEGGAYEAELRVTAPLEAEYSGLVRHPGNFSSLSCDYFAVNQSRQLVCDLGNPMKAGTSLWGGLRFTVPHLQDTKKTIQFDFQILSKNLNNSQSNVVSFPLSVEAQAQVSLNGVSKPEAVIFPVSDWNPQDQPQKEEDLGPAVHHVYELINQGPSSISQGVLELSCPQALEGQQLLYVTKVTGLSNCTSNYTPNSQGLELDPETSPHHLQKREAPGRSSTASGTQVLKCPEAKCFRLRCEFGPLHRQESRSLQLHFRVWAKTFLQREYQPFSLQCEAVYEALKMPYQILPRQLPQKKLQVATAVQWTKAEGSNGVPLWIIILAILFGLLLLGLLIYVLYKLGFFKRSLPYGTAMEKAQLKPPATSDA
mouse α5β1 integrin, sequence (P09055 21-798): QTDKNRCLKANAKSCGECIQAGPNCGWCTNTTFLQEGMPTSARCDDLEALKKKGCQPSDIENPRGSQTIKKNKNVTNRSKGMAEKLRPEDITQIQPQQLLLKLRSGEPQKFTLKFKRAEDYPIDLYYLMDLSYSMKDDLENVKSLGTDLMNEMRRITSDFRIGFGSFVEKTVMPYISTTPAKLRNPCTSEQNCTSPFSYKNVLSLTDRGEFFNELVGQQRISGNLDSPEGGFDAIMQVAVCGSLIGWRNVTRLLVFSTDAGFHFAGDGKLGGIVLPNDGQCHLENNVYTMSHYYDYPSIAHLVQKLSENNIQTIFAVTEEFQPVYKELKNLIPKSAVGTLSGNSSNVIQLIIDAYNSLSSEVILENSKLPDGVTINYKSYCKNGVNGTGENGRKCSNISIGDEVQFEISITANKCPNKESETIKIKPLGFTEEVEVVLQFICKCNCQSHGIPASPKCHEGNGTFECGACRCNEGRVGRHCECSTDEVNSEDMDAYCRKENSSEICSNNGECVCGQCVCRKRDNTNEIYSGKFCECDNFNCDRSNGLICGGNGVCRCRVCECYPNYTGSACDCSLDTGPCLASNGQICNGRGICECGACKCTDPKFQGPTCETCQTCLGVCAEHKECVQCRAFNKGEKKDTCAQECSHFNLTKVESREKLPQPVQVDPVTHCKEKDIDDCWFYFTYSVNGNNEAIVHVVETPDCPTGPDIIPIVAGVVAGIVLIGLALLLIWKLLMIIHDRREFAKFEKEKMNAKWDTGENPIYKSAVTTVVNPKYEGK
T11 sequence (P08648 42-894 limits assumed): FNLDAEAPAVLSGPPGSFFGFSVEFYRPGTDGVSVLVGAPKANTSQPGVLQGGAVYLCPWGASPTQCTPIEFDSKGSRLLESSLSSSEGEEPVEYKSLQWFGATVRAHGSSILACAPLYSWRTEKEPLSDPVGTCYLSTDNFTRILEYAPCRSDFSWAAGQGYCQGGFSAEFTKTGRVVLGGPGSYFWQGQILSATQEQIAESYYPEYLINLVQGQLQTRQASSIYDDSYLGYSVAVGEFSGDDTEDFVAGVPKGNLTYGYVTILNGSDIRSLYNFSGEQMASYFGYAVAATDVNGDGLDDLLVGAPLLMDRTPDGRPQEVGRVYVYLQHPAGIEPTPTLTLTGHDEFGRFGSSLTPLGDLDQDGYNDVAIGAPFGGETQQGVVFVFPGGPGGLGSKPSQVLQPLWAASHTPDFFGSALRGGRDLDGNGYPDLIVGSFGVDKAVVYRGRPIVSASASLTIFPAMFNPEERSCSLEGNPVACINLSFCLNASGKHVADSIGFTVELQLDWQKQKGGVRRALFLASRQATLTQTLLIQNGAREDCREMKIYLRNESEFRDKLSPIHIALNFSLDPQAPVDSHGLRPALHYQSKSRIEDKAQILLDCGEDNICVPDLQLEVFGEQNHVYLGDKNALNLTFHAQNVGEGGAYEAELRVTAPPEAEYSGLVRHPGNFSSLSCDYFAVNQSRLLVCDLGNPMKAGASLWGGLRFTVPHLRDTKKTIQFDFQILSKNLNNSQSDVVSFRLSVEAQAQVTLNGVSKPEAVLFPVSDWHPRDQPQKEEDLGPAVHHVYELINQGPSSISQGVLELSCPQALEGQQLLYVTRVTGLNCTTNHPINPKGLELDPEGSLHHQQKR
T11 sequence (P08648 895-1049 limits assumed): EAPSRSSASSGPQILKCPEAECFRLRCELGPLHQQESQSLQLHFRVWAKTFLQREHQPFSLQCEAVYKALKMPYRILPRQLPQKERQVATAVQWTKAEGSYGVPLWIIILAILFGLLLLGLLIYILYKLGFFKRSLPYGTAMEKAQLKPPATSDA
T11 sequence (P05556 21-798): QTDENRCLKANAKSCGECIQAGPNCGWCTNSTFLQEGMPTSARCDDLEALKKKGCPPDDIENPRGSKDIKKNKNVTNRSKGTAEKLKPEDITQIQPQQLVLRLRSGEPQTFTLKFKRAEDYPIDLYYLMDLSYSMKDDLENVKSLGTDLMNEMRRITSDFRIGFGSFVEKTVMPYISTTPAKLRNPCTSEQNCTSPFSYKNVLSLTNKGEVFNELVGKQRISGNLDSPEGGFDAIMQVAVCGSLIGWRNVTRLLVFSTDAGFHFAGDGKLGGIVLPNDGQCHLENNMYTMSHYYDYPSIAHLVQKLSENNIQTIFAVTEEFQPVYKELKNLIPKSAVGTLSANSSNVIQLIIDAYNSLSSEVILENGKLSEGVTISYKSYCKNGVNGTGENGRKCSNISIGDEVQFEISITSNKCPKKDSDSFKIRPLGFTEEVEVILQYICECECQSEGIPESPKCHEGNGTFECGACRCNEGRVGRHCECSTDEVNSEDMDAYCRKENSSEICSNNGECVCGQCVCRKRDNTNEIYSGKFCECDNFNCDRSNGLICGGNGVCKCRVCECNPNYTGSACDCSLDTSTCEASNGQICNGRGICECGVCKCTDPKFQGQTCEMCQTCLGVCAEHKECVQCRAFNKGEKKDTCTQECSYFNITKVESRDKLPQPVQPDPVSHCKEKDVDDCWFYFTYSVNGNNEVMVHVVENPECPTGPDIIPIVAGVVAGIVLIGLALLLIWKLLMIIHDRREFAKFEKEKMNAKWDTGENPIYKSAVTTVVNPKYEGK

recognition of mouse α5β1 integrin (mouse α5β1 integrin): does not recognize
α5β1 Surface Expression (MFI) [1]: 144.4 MFI
α5β1 Surface Expression (MFI) [2]: 42.5 MFI
α5β1 Surface Expression (MFI) [3]: 65.8 MFI
α5β1 Surface Expression (MFI) [4]: 102.1 MFI
α5β1 Surface Expression (MFI) [5]: 67.1 MFI
α5β1 Surface Expression (MFI) [6]: 87.5 MFI
α5β1 Surface Expression (MFI) [7]: 36.6 MFI
α5β1 Surface Expression (MFI) [8]: 122 MFI
α5β1 Surface Expression (MFI) [9]: 132.8 MFI
α5β1 Surface Expression (MFI) [10]: 129.1 MFI
α5β1 Surface Expression (MFI) [11]: 87.5 MFI
α5β1 Surface Expression (MFI) [12]: 5.7 MFI
α5β1 Surface Expression (MFI) [13]: 6.8 MFI
α5β1 Surface Expression (MFI) [14]: 261.6 MFI
B1: IIA1: parent mouse IgG1 class anti-α5β1 antibody shown to inhibit α5β1 integrin binding to fibronectin (antibody, V domains shown)
VH: MAVLGLLLCLVTFPSCVLSQVQLKESGPGLVAPSQSLSITCTISGFSLTDYGVHWVRQPPGKGLEWLVVIWSDGSSTYNSALKSRMTIRKDNSKSQVFLIMNSLQTDDSAMYYCARHGTYYGMTTTGDALDYWGQGTSVTVSS
VL: MDFQVQIFSFLLISASVIMSRGQIVLTQSPAIMSASLGERVTMTCTASSSVSSNYLHWYQQKPGSAPNLWIYSTSNLASGVPARFSGSGSGTSYSLTISSMEAEDAATYYCHQYLRSPPTFGGGTKLEIK
modifications: mus muscalus
LOX xenograft tumor growth (LOX cells): reproducibly inhibit
VX2 xenograft tumor growth versus control IgG (VX2 cancer cells): did not correlate with a decreased rate of VX2 tumor growth
NW231 xenograft tumor growth (NW231 cells): reproducibly inhibit

B2: M200: chimeric IgG4 anti-α5β1 antibody derived from IIA1; generic name volociximab (antibody, V domains shown)
VH: B1 VH
VL: MDFQVQIFSFLLISASVIMSRGQIVLTQSPAIMSASLGERVTMTCTASSSVSSNYLHWYQQKPGSAPNLWIYSTSNLASGVPARFSGSGSGTSYSLTISSMEAEDAATYYCHQYLRSPPTFGGGTKLEIKDMSVDMSV
modifications: chimeric antibody
notes: chimeric IgG4 anti-α5β1 antibody derived from IIA1; generic name volociximab
LOX xenograft tumor growth (LOX cells): not found to reproducibly inhibit tumor growth
minimum effective in vitro concentration [15]: 2 to 3 µg/mL
VX2 xenograft tumor growth versus control IgG (VX2 cancer cells): did not correlate with a decreased rate of VX2 tumor growth
accessibility of subcutaneous and intramuscular VX2 tumors to antibody, assessed by IHC (VX2 tumors): accessible to M200
recognition of mouse α5β1 integrin (mouse α5β1 integrin): does not cross react
NW231 xenograft tumor growth (NW231 cells): not found to reproducibly inhibit tumor growth
